According to IntAct's records for PubMed 25363763:

B1: Cell adhesion molecule CEACAM1 (Homo sapiens), P13688 (parent)
chain: MGHLSAPLHRVRVPWQGLLLTASLLTFWNPPTTAQLTTESMPFNVAEGKEVLLLVHNLPQQLFGYSWYKGERVDGNRQIVGYAIGTQQATPGPANSGRETIYPNASLLIQNVTQNDTGFYTLQVIKSDLVNEEATGQFHVYPELPKPSISSNNSNPVEDKDAVAFTCEPETQDTTYLWWINNQSLPVSPRLQLSNGNRTLTLLSVTRNDTGPYECEIQNPVSANRSDPVTLNVTYGPDTPTISPSDTYYRPGANLSLSCYAASNPPAQYSWLINGTFQQSTQELFIPNITVNNSGSYTCHANNSVTGCNRTTVKTIIVTELSPVVAKPQIKASKTTVTGDKDSVNLTCSTNDTGISIRWFFKNQSLPSSERMKLSQGNTTLSINPVKREDAGTYWCEVFNPISKNQSDPIMLNVNYNALPQENGLSPGAIAGIVIGVVALVALIAVALACFLHFGKTGRASDQRDLTEHKPSVSNHTQDHSNDPPNKMNEVTYSTLNFEAQQPTQPTSASPSLTATEIIYSEVKKQ

Variants of: B1
Conditions: with havr2_human HAVCR2, Q8TDQ0

| Variant | effect of a mutation on the interaction |
| --- | --- |
| Q123H | decreasing interaction strength |
| Q78L | decreasing interaction strength |
| G81A | disrupting interaction strength |
| N76A | decreasing interaction strength |
